Results: US20070196354A1, “Method of treating diabetes by inhibiting degradation of at least one of crebl1, atf6, and hnf-4 alpha by htra” (priority 2003, published 2007)

T1: ATF6 (Homo sapiens, UniProt P18850)
T1 construct: expressed in transfected cells; host or cells: HEK293T
T1 sequence (P18850 1-670): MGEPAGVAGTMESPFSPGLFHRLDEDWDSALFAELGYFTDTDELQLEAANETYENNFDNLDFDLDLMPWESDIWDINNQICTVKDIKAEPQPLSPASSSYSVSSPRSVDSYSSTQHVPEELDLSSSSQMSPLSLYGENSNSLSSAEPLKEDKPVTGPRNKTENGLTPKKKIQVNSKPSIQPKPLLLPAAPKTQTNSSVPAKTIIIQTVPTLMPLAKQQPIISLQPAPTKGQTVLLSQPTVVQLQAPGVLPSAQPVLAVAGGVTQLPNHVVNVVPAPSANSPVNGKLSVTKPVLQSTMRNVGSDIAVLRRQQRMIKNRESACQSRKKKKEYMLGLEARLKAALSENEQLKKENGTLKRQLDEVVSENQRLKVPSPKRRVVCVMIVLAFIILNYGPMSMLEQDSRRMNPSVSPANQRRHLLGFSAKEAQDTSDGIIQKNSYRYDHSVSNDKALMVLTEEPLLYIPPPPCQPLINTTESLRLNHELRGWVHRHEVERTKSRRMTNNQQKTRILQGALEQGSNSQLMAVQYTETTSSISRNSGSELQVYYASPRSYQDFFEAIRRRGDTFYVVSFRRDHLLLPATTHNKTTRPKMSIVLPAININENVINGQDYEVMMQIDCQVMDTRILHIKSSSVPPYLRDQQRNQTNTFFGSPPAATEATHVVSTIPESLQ

T2: CREBL1 (Homo sapiens, UniProt Q99941)
T2 construct: expressed in transfected cells; host or cells: HEK293T
T2 sequence (Q99941 1-703): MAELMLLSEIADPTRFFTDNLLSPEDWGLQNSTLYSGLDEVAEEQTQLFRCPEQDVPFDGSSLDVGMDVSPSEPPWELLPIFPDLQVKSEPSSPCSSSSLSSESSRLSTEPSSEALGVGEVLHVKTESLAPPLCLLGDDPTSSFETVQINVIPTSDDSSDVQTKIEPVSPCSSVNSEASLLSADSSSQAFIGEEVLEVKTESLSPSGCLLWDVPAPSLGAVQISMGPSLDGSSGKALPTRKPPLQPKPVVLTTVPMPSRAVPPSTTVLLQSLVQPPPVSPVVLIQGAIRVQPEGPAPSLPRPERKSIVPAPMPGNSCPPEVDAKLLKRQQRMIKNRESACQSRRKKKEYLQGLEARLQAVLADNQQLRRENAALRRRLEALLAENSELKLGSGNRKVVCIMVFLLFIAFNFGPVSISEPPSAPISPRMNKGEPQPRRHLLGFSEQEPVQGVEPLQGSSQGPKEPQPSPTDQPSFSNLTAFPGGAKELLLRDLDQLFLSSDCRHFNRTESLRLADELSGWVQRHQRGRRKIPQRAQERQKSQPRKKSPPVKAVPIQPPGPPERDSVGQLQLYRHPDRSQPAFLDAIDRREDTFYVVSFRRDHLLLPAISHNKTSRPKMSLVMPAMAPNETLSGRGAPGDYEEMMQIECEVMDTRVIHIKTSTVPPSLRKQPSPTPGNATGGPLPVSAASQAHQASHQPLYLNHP

T3: HNF-4α (Homo sapiens, UniProt P41235)
T3 construct: expressed in transfected cells; host or cells: HEK293T
T3 sequence (P41235 10-474): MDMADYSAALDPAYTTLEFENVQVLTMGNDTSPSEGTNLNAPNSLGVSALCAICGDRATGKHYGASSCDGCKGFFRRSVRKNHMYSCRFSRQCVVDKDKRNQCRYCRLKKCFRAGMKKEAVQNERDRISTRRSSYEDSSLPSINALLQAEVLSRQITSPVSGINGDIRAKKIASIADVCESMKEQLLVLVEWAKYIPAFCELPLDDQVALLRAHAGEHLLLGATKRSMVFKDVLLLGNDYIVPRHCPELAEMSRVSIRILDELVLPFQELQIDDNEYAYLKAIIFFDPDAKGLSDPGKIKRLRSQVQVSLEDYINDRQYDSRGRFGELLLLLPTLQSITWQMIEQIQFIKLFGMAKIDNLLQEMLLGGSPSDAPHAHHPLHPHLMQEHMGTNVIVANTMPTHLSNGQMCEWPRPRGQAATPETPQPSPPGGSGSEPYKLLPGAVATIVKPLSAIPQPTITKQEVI

B1: mature HtrA2 (S306A, GVPS): SEQ ID NO: 14; mature HtrA2 (S306A) with N-terminal alanine substituted with glycine (protein)
chain: MGVPSPPPASPRSQYNFIADVVEKTAPAVVYIEILDRHPFLGREVPISNGSGFVVAADGLIVTNAHVVADRRRVRVRLLSGDTYEAVVTAVDPVADIATLRIQTKEPLPTLPLGRSADVRQGEFVVAMGSPFALQNTITSGIVSSAQRPARDLGLPQTNVEYIQTDAAIDFGNAGGPLVNLDGEVIGVNTMKVTAGISFAIPSDRLREFLHRGEKKNSSSGISGSQRRYIGVMMLTLSPSILAELQLREPSFPDVQHGVLIHKVILGSPAHRAGLRPGDVILAIGEQMVQNAEDVYEAVRTQSQLAVQIRRGRETLTLYVTPEVTE
modifications: Polypeptide consisting of the same amino acid sequence of SEQ ID NO6 wherein the 2nd amino acid residue is substituted by Gly; mature HtrA2(S306A, GVPS)
notes: mature HtrA2 (S306A) with N-terminal alanine substituted with glycine
B2: mature HtrA2 (S306A, ΔAVPS): SEQ ID NO: 12; mature HtrA2 (S306A) lacking the N-terminal four amino acid residues (AVPS) (protein)
chain: MPPPASPRSQYNFIADVVEKTAPAVVYIEILDRHPFLGREVPISNGSGFVVAADGLIVTNAHVVADRRRVRVRLLSGDTYEAVVTAVDPVADIATLRIQTKEPLPTLPLGRSADVRQGEFVVAMGSPFALQNTITSGIVSSAQRPARDLGLPQTNVEYIQTDAAIDFGNAGGPLVNLDGEVIGVNTMKVTAGISFAIPSDRLREFLHRGEKKNSSSGISGSQRRYIGVMMLTLSPSILAELQLREPSFPDVQHGVLIHKVILGSPAHRAGLRPGDVILAIGEQMVQNAEDVYEAVRTQSQLAVQIRRGRETLTLYVTPEVTE
modifications: Polypeptide consisting of the same amino acid sequence of SEQ ID NO6 wherein the amino acid residues from the 2nd to the 5th are deleted; mature HtrA2(S306A, delta AVPS)

Assays:
ATF6 = molecular target: T1, ATF6; test: Intracellular protease assay, co-expression with ATF6 in HEK293T cells; format: cell-based; conditions: 48 hours
Procedure: (§1) HEK293T cells were cultured to 1.5×10^5 cells/10 cm Dish. Next day, the expression plasmid of CREBL1 or ATF6 was transfected into HEK293T cells together with the expression plasmid of various types of HtrA2 using FuGene 6 (Roche). Each of the expression plasmid of various HtrA2 at 1 μg/Dish was added in combination with CREBL1 expression plasmid or ATF6 expression plasmid at 1 μg/Dish. Forty eight hours later, the cells in which the various types of HtrA2 were co-expressed with CREBL1 or ATF6 were added with 200 μl of lysis buffer B and an equivalent volume of 2×SDS sample buffer (containing 0.1% β-mercaptoethanol), and then subjected to sonication followed by boiling to use as a test sample.
(§2) Expression of CREBL1 and ATF6 and the degradation of these proteins were detected by western blotting using 10 μl of the test sample thus obtained. Anti-c-Myc (9E10) antibody was used as a primary antibody for detection, and horseradish peroxidase (HRP) conjugated anti-mouse IgG antibody (Cell Signaling) was used as a secondary antibody. Detection was carried out using ECL Western Blotting Detection System.

casein = test: Casein zymography and protease assay with casein sodium; format: biochemical; conditions: HtrA2 types expressed in a cultured cell
Procedure: Determination of the activity of mature HtrA2 and mature HtrA2 (S306A) was carried out with casein zymography and with a protease assay with casein sodium. Casein zymography was carried out according to the protocol (Invitrogen). More concretely, mature HtrA2 and mature HtrA2 (S306A) were mixed under non-reductive condition with equivalent volume of 2×SDS sample buffer, left to stand at room temperature for 10 min, followed by separation with 4-16% zymogram (Blue casein) gel (Zymogram Gel, Invitrogen). After completion of electrophoresis, they were renatured with 2.5% Triton X-100, and then subjected to a degradation reaction of casein in the developing buffer at 37= C. for overnight.
Meanwhile, a protease assay using casein sodium as an substrate was carried out in such that mature HtrA2 or mature HtrA2 (S306A) was mixed with casein sodium in a reaction buffer (150 mM NaCl, 50 mM Tris-HCl (pH 7.5)) so as to the concentration of the former might become 200 μg/ml and the concentration of the latter might become 400 μg/ml, and incubated at 37° C. for reactions. A portion of the reaction solution was sampled at three hours and overnight after initiation of the reaction, mixed with equivalent volume of 2×SDS sample buffer followed by boiling, and then subjected to SDS-PAGE. After that, the degradation of casein sodium was detected by Coomassie Brilliant Blue (CBB) staining.
The enzyme activity of the various types of HtrA2 each of which was expressed in a cultured cell was determined by the protease assay using casein sodium as a substrate (see Example 2).

CREBL1 = molecular target: T2, CREBL1; test: Intracellular protease assay, co-expression with CREBL1 in HEK293T cells; format: cell-based; conditions: 48 hours
Procedure: as §1, §2

HNF-4α = molecular target: T3, HNF-4α; test: Intracellular protease assay, co-expression with HNF-4α in HEK293T cells; format: cell-based; conditions: 48 hours
Procedure: as §1, with “cells/6” for “cells/10”, “HNF-4α” for “CREBL1 or ATF6”, “HNF-4α” for “CREBL1 expression plasmid or ATF6”
Expression of HNF-4α and the degradation of HNF-4α were detected by western blotting using 10 μl of the test sample thus obtained. Anti-FLAG antibody (Sigma) was used as a primary antibody for detection, and horseradish peroxidase (HRP) labeled anti-mouse IgG antibody (Cell Signaling) was used as a secondary antibody. Detection was carried out using ECL Western Blotting Detection System.

| Molecule | degradation of ATF6 in cells (band by western blotting) (ATF6) | protease activity using casein sodium as a substrate (casein) | degradation of CREBL1 in cells (band by western blotting) (CREBL1) | degradation of HNF-4α in cells (band by western blotting) (HNF-4α) |
| --- | --- | --- | --- | --- |
| B1 | the reduction of the band of ATF6 was not observed | inactive type without exhibiting protease activity | the reduction of the band of CREBL1 was not observed | the reduction of the band of HNF-4α was not observed |
| B2 | the reduction of the band of ATF6 was not observed | inactive type without exhibiting protease activity | the reduction of the band of CREBL1 was not observed | the reduction of the band of HNF-4α was not observed |
